experiment: soluble on expression in E. coli; label from the status in PepcDB or PDB records

| Sequence | soluble on expression in E. coli |
| --- | --- |
| MGSDKIHHHHHHMITIKEYVVPKSLDEAYELLISRKNNIILGGCGFLKLGSKNIGSAIDLKDLALDYINETDDSILIGADTSLRTLELNKVIKNYCNGVISNAVSNIVGVQFRSGARVGASVFAKYGFSDLIPSLLVVDAKVKLYKKGVMNLADFLENELEKDILIEVILPKKDAIGVFDSIRKCTGDFAVLNGAMLKEGSIYKIAIGARPRRAKIAYKASEILSLENDIEKAGEVSSEELSFGSNIRGSKEYRKDMAKALVVRMYNSIGGECDGK | not soluble |
| DWVIPPINLPENSRGPFPQELVRIRSDRDKNLSLRYSVTGPGADQPPTGIFIINPISGQLSVTKPLDRELIARFHLRAHAVDINGNQVENPIDIVINVIDMNDNRPEFLHQVWNGSVPEGSKPGTYVMTVTAIDADDPNALNGMLRYRIVSQAPSTPSPNMFTINNETGDIITVAAGLDREKVQQYTLIIQATDMEGNPTYGLSNTATAVITVTD | soluble |
| MCAVLGDNSVSYNTMKFWFEKIKKKNYDLDDKPRSGRPRLDIDEDISRALEDDPRSMSREISATLKRPHTTIINHLHESGRVPKFGQLVPHNLSDSQKNLRCDLSLSLLTRKRTTDWVKDITTGDEKWVLYVNHTRKKQWVPVEEHAEPDLKGELHEKKVLLSIWWDSMGVIFRELLPDGATINADLYCIQLEKVVHAHQLHRPRGSKLLLLHDNARPHTALKTRQKLQTLGIEVLPHPPYSPDLAPTDYHLFRSLQNHLAGQKFHDRKAVETWLDDFFASKSQEFYAEGIAQLPLRWQEVIDTNGEYITH | not soluble |
| GPGSMFGANAPSTGIGAPAAGFGKPPATFGTSALSGANTTATAGRGFGAATGASATPGFGIAFAAPSTSTAAAGGASGFGSSAASGTTGFGGAAGFGSSAASGTTGFGGAAGFGSSAASGTTGFGAGGGFGAKPGSGFGVSATSGFGAPATGTTGFGAGATAPAAIGGWGAQQPNPAMQPQAPQQPQPTVTLQDFARQSALASYLVKLDESYNALHPNCRFRAFVYNSCGAGQVMDAIQKERYTAHLNGGGCSEEAYMQALHQNPDPGRLYPSPIHFSQELLRRTEKQREAVKVLQKKVTELLQDIDTVAAMDAANVRRQREVEQEEVMLQHRWYSLLCKMELLRRHGSSCGEEGLLNSRVEQLRKLLRAPGRFSQLLSELRPFLTEEASRVAMITQQSANKTEARQQQQQCRFVGSAPAAWRNAGSQPLLRTEVDPYIMKDWVQFAKQMQDGIETLNELLKTDLKEMQAIRSRVEAS | not soluble |
| MTELEEIGININSIENTEQIISQLMDNYSDDVLHLVFSYVKNRTTAEDLTQEIFIKCYEKLDQFNNKSSIKTWLYRIAINHCKDYLGSWHYRKLNFSEKIWNYLPSKSKHVEEEIIAKDVANSLMSAVMDLPVKYREVVFLHYYEELSLANISKITGVNSNTLKTRLKHARELLKTKMKKEV | not soluble |
| MAIIRQRYQEQLDDLIKELRRLGANVYVSIENGIKSLSIDDRGFARQTVKNDKHINQLNYDINERVIMLITKQQPIASDLRMMISSLKIASDLERIGDNASSIANIRLRTKITDDYVLTRLKTMGKLAMLMLKDLDQAFKKKDTVLIREIIERDEDIDDLYSHIINATYLIDNDPFVAAQAHLAARHLERIGDHIINIAESVYFYLTGTHYEQ | not soluble |
| KRQKIHLGDRSQKCSKCGIIFIRRSTLSRRKTPMCEKCRKDSCQEAALNKDEGNESGKKT | soluble |
| MWQAISQQLSDTLLFEYQITEKVRLSGGDISESYMINDGEQRYFVKINDREFLHKFEVEAESLHLLRETSTIFVPEVVLVGKTKNNAFIILNYLPTKPLDDPENSFKFGQQLAQLHQWGEQKEFGFDTDNYLGSTLQPNQWHKKWCMFFAEQRIGWQLQLLKEKGVTLVDIDDFIDVVKQLLANHTPEPSLLHGDLWNGNVALTAFGPICFDPACYWGDRECDIAMTELFGGFQPEFYQGYESVMPLLPGYHERKDIYNLYHILNHCNLFGGHYLEQAQLTINKIISYLEHHHHHH | soluble |
| MSLKRQLGKDVVQAARERIHILFDEFEHIYVSFSGGKDSGVLLHLVIEEARKRNRLPVDVLIVDLEAQYQHTIHFVERMVNKKEVNAFWVCLPLSLRNSVSQFQPKWICWDPDKKEDWIRALPLHASVINEEEYFSFYSFGMEFETFVSAFGEWYSEKKQCPCACLVAIRADESLNRYKTIKNQRKKRLKQYGWTTKASDVFYKAYLIYDWHVTDIWIANGRFNWDYNHVYDLMHKAGLSLAQQRLCQPFGDDQRKGLWLYQILEPQTWQKLVVRVEGCNFGARYSKKQGHILGYYKFDLPEGYTYRSYSKYLLNSMPPHLADHYRKRLFKFLNWWRKNGKEQGILSIPDFADKKLEAKKKVPSWRRICKVLIKNDYWCRGLSFGQSKKLTEHYIDLYEGYFRKEGHHHHHH | soluble |
| MSNHIDRDVINALIAGHFADPFSVLGMHRTDAGLEVRALLPDATDVWVIEPKTGRKVGKLECLDSRGFFSGVLPRRKNAFRYQLAVTWHGQQNLIDDPYRFGPLLQ | not soluble |
| MQQPEQYCRFLCLVAHEFFHLWNIKRIRPQAFEVFDYDSENYTTSLWFVEGVTSYFDQLIPLWAGLFDAPTYLKLLSDSLNRYFHTPGRFVQSLSAASFDAWIKLYRPDENSINSQMSYYLKGELVALLLDLRLEHHHHHH | not soluble |
| MINKTQARRHKRKYKYRSKGNHSRSLLGMHTSPANSSMSQAIYSNDSLTTTDGVLGDESLSSETSIVSFTGENANKQKRQRLSESTENSIPEPAFLRSNVTSLTTSESDDIQQFFLENESLFQIEYKIDYKNYRDYTIVPSFGTVIPKSKCEIALICRPTGKSESDQMTISYKTVDSDNDLANGCFSEMEKIVIDIKGRSQESPIHSIPSSSGSSSTSSPSAKRRNIVDSDSD | not soluble |
| MEQDTQHVKPLQTKTDIHAVLASNGRIIYISANSKLHLGYLQGEMIGSFLKTFLHEEDQFLVESYFYNEHHLMPCTFRFIKKDHTIVWVEAAVEIVTTRAERTEREIILKMKVLEEETGHQSLNCEKHEIEPASPESTTYITDDYERLVENLPSPLCISVKGKIVYVNSAMLSMLGAKSKDAIIGKSSYEFIEEEYHDIVKNRIIRMQKGMEVGMIEQTWKRLDGTPVHLEVKASPTVYKNQQAELLLLIDISSRKKFQTILQKSRERYQLLIQNSIDTIAVIHNGKWVFMNESGISLFEAATYEDLIGKNIYDQLHPCDHEDVKERIQNIAEQKTESEIVKQSWFTFQNRVIYTEMVCIPTTFFGEAAVQVILRDISERKQTEELMLKSEKLSIAGQLAAGIAHEIRNPLTAIKGFLQLMKPTMEGNEHYFDIVFSELSRIELILSELLMLAKPQQNAVKEYLNLKKLIGEVSALLETQANLNGIFIRTSYEKDSIYINGDQNQLKQVFINLIKNAVESMPDGGTVDIIITEDEHSVHVTVKDEGEGIPEKVLNRIGEPFLTTKEKGTGLGLMVTFNIIENHQGVIHVDSHPEKGTAFKISFPKK | not soluble |
| MGSDKIHHHHHHMKVALLSPIAWRTPPRHYGPWERVVSLIAEGLVKKGVDVTLFATGDSKTAGRLEYICPIPYEENPNMDAKVWEAMHIAHLFEQAHKFDIIHNNYDFLPLSYSRQVDTPMITTIHGFSSPKILPIYREYNRNNYYVSISNADRSPDLDYYATVYHGIDLNELTLKLNAGSYLLYFGRIHPDKGTAQAIEIARKSDMQLLIAGIIQDKQYFNQQIYPRIDNKKVIYLGSVGPAKRDELLGNALALLHPIHFNEPFGLSVIEAMACGTPVIAFNKGSMPEVIKDGETGFLVDNVEMACEKLGSINKIKRANCRYWVEENFSQERMVSDYLSLYQEIIKGGKLPVRTPSLSGRCK | not soluble |
| MTDCCPGFGSVAKYIAVSVREASFDVRSMAATSTCIFVLEVMGRHAGWIAAAGGLASDERHELALVILFPEQVFDPERFLRAVDEKVRSHGYCSVVVSEGIRGADGRFVAESGSRDVFGHARLGGVAPVIADLIKERLGYKYHWAVADYLQRAARHIALEHHHHHH | not soluble |
| MAHHHHHHMNAVKEADVVFLEAYTSFLINSNAEKLAGIYGKPVILADREMVESGAVLDDAKVKKVVLLVVGDVFGATTHSDLIVRCNRQGIESKIVHNASIINAVGCCGLQLYRFGQVISLCFWTETWRPDSWYERLQSNRAAGIHTLVLLDIKVKEISDENLARGRKIYEPPRYMTIRQAIEQILEVEGYKQGGAVAADGSTFAVGLARVGSESQQVVAGTMKDLLSVDFGAPLHSLVIAGDVHDCEQEHVDLFRMAGQ | not soluble |
